From patent publication US20140134183A1 (CELL MEDICA SWITZERLAND, published 2014)
“And” between values parts separate entries of the source, which are not always exact repeats. Equal entries are not always repeated.

Assays:
canine IL-1 beta = biological target: T1, canine IL-1 beta (canine, UniProt Q28292 115-266, limits assumed); experiment: ELISA, IL-1 beta coated at 2 mcg/ml, Protein L-HRP detection
T1 construct: Bought protein
T1 sequence (looked up): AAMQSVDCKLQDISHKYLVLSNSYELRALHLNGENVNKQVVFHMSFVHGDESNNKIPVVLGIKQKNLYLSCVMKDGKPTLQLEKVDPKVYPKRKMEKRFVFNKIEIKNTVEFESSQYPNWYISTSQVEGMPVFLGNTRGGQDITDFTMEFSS
Source text: (§1) Binding to the recombinantly expressed IL-1 beta proteins of the following species was investigated: cynomolgus (Sino Biological Inc., USA, cat. no. 90010-CNAE), rhesus macaque (R&D Systems, USA, cat. no. 1318-RL/CF), swine (Kingfisher Biotech, USA, cat. no. RP0297S-025), canine (Kingfisher Biotech, USA, cat. no. RP0085D-025), guinea pig (Kingfisher Biotech, cat. no. RP0343GP-025), rat (Peprotech, cat. no. 400-01B) and mouse (BioLegend, cat. no. 575102). […] Briefly, proteins were coated at a concentration of 2 mcg/ml over night at 4° C. on Maxisorp 96-well microplates in PBS. […] The ELISA was developed with BM Blue POD substrate (Roche Applied Science) and the absorbance was measured at 450 nm.

mouse IL-1 beta = biological target: T2, mouse IL-1 beta (mouse, UniProt P10749 118-269); experiment: as above
T2 construct: Bought protein
T2 sequence (P10749 118-269 limits assumed): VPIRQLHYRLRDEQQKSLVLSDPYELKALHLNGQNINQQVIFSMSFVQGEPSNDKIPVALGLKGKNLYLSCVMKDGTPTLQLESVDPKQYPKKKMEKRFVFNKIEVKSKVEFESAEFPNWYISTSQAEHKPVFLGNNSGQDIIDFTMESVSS
Source text: as §1

swine IL-1 beta = biological target: T3, swine IL-1 beta (swine, UniProt P26889 115-267, limits assumed); experiment: as above
T3 construct: Bought protein; also called porcine IL-1 beta
T3 sequence (looked up): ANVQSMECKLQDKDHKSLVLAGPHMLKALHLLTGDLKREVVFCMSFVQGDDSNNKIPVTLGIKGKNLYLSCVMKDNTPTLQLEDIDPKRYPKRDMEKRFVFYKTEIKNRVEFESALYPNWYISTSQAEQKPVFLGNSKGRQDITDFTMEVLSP
Source text: as §1

guinea pig IL-1 beta = biological target: T4, guinea pig IL-1 beta (guinea pig, UniProt Q9WVG1 115-266); experiment: as above
T4 construct: Bought protein
T4 sequence: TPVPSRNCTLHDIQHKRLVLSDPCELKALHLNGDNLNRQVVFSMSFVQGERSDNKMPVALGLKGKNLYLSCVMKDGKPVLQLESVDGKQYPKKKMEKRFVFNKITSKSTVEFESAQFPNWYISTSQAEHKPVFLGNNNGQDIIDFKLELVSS
Source text: as §1

cynomolgus IL-1 beta = biological target: T5, cynomolgus IL-1 beta (cynomolgus, UniProt P79182 117-268); experiment: ELISA, IL-1 beta coated at 2 mcg/ml, DLX2323 0.1 to 1.0 mcg/ml, Protein L-HRP detection
T5 construct: Bought protein
T5 sequence (P79182 117-268 limits assumed): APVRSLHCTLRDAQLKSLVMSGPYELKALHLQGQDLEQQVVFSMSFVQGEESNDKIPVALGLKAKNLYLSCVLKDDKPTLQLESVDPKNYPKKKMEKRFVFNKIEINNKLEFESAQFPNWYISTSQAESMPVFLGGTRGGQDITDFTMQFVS
Source text: as §1

rhesus macaque IL-1 beta = biological target: T6, rhesus macaque IL-1 beta (rhesus macaque, UniProt P48090 117-269); experiment: as above
T6 construct: Bought protein; also called rhesus monkey IL-1 beta
T6 sequence (P48090 117-269 limits assumed): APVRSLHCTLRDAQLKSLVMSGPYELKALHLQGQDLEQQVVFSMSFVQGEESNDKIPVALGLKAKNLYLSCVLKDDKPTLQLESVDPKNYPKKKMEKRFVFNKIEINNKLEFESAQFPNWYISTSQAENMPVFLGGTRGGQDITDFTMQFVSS
Source text: as §1

rat IL-1 beta = biological target: T7, rat IL-1 beta (rat, UniProt Q63264 117-268); experiment: as above
T7 construct: Bought protein
T7 sequence (Q63264 117-268 limits assumed): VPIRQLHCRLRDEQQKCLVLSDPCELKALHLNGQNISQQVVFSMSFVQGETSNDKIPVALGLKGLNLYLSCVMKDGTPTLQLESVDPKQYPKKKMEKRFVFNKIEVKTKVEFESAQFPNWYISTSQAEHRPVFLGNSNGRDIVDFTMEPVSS
Source text: as §1

IL-36ra = biological target: T8, IL-36ra (human, UniProt Q9UBH0 2-155); experiment: ELISA, cytokine coated, carried out essentially as for the species orthologs
T8 construct: Bought protein
T8 sequence (looked up): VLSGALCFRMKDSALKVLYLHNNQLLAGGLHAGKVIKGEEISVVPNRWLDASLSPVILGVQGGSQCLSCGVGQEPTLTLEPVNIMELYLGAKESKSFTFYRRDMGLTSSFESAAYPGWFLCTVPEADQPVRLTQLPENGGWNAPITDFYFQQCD
Experimental: (§2) Briefly, proteins were coated at a concentration of 2 mcg/ml over night at 4° C. on Maxisorp 96-well microplates in PBS. […] The ELISA was developed with BM Blue POD substrate (Roche Applied Science) and the absorbance was measured at 450 nm.
(§3) In the applied ELISA assay the following antibodies served as positive controls: biotin anti-human IL-1ra (BioLegend, cat. no. 509501), biotin anti-human IL-1 alpha (BioLegend, cat. no. 515703), anti-human IL-18 polyclonal antibody (BioVision, cat. no. 5179-100), biotin anti-human IL-33 antibody (Peprotech, cat. no. 500-P261Bt), anti-human TNF alpha scFv DLX105 (Delenex propriety antibody described in WO 2006/131013 A), biotin anti-human IL-6 (R&D systems, DY206, cat. no. 840114), anti-human IL-36ra (R&D systems, cat. no. AF1275). The ELISA was carried out essentially as described above.

rhTNF alpha = biological target: T9, rhTNF alpha (human, UniProt P01375 77-233); experiment: as above
T9 construct: Bought protein
T9 sequence (P01375 77-233): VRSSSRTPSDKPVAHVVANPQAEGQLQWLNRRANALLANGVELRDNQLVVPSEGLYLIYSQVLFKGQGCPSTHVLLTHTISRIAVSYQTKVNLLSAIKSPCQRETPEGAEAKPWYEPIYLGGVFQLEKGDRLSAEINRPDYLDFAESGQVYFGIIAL
Experimental: as §2, §3

rhIL-1 alpha = biological target: T10, rhIL-1 alpha (human, UniProt P01583 113-271); experiment: as above
T10 construct: Bought protein
T10 sequence (looked up): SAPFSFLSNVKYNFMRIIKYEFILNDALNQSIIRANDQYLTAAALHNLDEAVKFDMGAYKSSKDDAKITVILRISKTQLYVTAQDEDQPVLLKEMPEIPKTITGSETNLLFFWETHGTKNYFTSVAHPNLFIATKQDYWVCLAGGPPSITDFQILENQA
Experimental: as §2, §3

rhIL-6 = biological target: T11, rhIL-6 (human, UniProt P05231 30-212); experiment: as above
T11 construct: Bought protein
T11 sequence (P05231 30-212 limits assumed): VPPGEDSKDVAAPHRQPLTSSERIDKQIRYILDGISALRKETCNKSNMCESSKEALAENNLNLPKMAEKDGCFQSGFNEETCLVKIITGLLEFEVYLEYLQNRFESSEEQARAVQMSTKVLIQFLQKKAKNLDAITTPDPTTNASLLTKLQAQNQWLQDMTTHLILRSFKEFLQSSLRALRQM
Experimental: as §2, §3

rhIL-18 = biological target: T12, rhIL-18 (human, UniProt Q14116 37-193); experiment: as above
T12 construct: Bought protein
Experimental: as §2, §3

rhIL-1ra = biological target: T13, rhIL-1ra (human, UniProt P18510 26-177); experiment: as above
T13 construct: Bought protein; also called rhIL-1 receptor antagonist; IL-1 beta receptor antagonist
T13 sequence (P18510 26-177): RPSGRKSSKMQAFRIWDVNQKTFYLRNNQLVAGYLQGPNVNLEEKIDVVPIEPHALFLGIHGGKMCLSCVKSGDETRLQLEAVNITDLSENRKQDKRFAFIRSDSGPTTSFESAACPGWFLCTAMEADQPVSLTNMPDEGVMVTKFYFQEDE
Experimental: as §2, §3

rhIL-33 = biological target: T14, rhIL-33 (human, UniProt O95760 112-270); experiment: as above
T14 construct: Bought protein
T14 sequence (looked up): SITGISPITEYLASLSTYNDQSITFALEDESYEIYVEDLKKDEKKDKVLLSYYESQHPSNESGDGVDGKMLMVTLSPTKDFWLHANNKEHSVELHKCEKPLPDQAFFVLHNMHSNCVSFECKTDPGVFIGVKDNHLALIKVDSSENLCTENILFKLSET
Experimental: as §2, §3

[1] = biological target: recombinant human IL-1 beta (human, UniProt P01584 117-269); experiment: cell-based or functional assay

binding result (canine IL-1 beta): no binding (tested: 1.0 mcg/ml)
binding result (mouse IL-1 beta): no binding (tested: 1.0 mcg/ml)
binding result (swine IL-1 beta): no binding (tested: 1.0 mcg/ml)
binding result (guinea pig IL-1 beta): no binding (tested: 1.0 mcg/ml)
binding result (cynomolgus IL-1 beta): binds
binding result (rhesus macaque IL-1 beta): binds
binding result (rat IL-1 beta): binds
binding result (IL-36ra): no binding
binding result (rhTNF alpha): no binding
binding result (rhIL-1 alpha): no binding
binding result (rhIL-6): no binding
binding result (rhIL-18): no binding
binding result (rhIL-1ra): no binding
binding result (rhIL-33): no binding
IC50 of IL-1 beta-induced IL-6 release from human dermal fibroblasts [1]: 3 pM and 0.002 nM to 0.004 nM (2×)
B1: DLX2323 (scFv)
scFv: EIVMTQSPSTLSASVGDRVIITCQASQSIDNWLSWYQQKPGKAPKLLIYRASTLASGVPSRFSGSGSGAEFTLTISSLQPDDFATYYCQNTGGGVSIAFGQGTKLTVLGGGGGSGGGGSGGGGSGGGGSEVQLVESGGGLVQPGGSLRLSCTASGFSLSSAAMAWVRQAPGKGLEWVGIIYDSASTYYASWAKGRFTISRDTSKNTVYLQMNSLRAEDTAVYYCARERAIFSGDFVLWGQGTLVTVSS
notes: also called scFv DLX2323; parental scFv
